PMC7125077, “In TFIIH the Arch domain of XPD is mechanistically essential for transcription and DNA repair” (Nature Communications, 2020)

Biological target: human XPD, wild type (XPD-FLAG) (human, UniProt P18074 1-760)
Experiment: cell-based or functional assay

in vitro transcription of TFIIH reconstituted from rIIH6, CAK and XPD, % of wild type: 100%
B1: human CDK activating kinase complex (CAK), wild type: MAT1 / CDK7-Strep / Cyclin H (complex)
chain 1: MDDQGCPRCKTTKYRNPSLKLMVNVCGHTLCESCVDLLFVRGAGNCPECGTPLRKSNFRVQLFEDPTVDKEVEIRKKVLKIYNKREEDFPSLREYNDFLEEVEEIVFNLTNNVDLDNTKKKMEIYQKENKDVIQKNKLKLTREQEELEEALEVERQENEQRRLFIQKEEQLQQILKRKNKQAFLDELESSDLPVALLLAQHKDRSTQLEMQLEKPKPVKPVTFSTGIKMGQHISLAPIHKLEEALYEYQPLQIETYGPHVPELEMLGRLGYLNHVRAASPQDLAGGYTSSLACHRALQDAFSGLFWQPS
chain 2: MALDVKSRAKRYEKLDFLGEGQFATVYKARDKNTNQIVAIKKIKLGHRSEAKDGINRTALREIKLLQELSHPNIIGLLDAFGHKSNISLVFDFMETDLEVIIKDNSLVLTPSHIKAYMLMTLQGLEYLHQHWILHRDLKPNNLLLDENGVLKLADFGLAKSFGSPNRAYTHQVVTRWYRAPELLFGARMYGVGVDMWAVGCILAELLLRVPFLPGDSDLDQLTRIFETLGTPTEEQWPDMCSLPDYVTFKSFPGIPLHHIFSAAGDDLLDLIQGLFLFNPCARITATQALKMKYFSNRPGPTPGCQLPRPNCPVETLKEQSNPALAIKRKRTEALEQGGLPKKLIF
chain 3: MYHNSSQKRHWTFSSEEQLARLRADANRKFRCKAVANGKVLPNDPVFLEPHEEMTLCKYYEKRLLEFCSVFKPAMPRSVVGTACMYFKRFYLNNSVMEYHPRIIMLTCAFLACKVDEFNVSSPQFVGNLRESPLGQEKALEQILEYELLLIQQLNFHLIVHNPYRPFEGFLIDLKTRYPILENPEILRKTADDFLNRIALTDAYLLYTPSQIALTAILSSASRAGITMESYLSESLMLKENRTCLSQLLDIMKSMRNLVKKYEPPRSEEVAVLKQKLERCHSAELALNVITKKRKGYEDDDYVSKKSKHEEEEWTDDDLVESL
